The supplement of paper PMC6755084

B1: F1*; the commonest letter at each place (parent)
chain: GAGACCGCAACTGAAAAGTTGTTATCACTTGTCGTAAGACACTTTGGATGGGTTGAAGTTCTGCACGTAGAAGCAAAAGGC

Variants of: B1
Assay: fraction ligated after 30 min (ligated reads / total reads); higher = more ligase activity
Settings: with F1*sub RNA substrate (template-directed ligation), 42 °C
Method: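 Chip-synthesised pool of F1* ligase ribozyme variants (all single and double substitutions, single, double and triple deletions in the catalytic core and GAA bulge, plus designed variants) was transcribed with T7 and reacted as a pool with excess substrate F1*sub for 30 min at 42 C in 50 mM EPPS pH 8.5, 25 mM MgCl2. Ligated and unligated bands were separated by PAGE, barcoded by RT and deep sequenced; fraction ligated = ligated reads / total reads per variant, relative activity = FL / FL of wild type (0.826). Sequences are the DNA template of the ribozyme.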

| Variant | fraction ligated |
| --- | --- |
| GAGACCGCAACTGAAAAGTTGTTATCCCTTGTCGTAAGACACATTGGATGGGTTGAAGTTCTGCACGTAGAAGCAAAAGGC [A27C T43A] | 0.844 |
| GAGACCGCAACTGAAAAGTTGTTATCCCTTGTCGTAAGACACGTTGGATGGGTTGAAGTTCTGCACGTAGAAGCAAAAGGC [A27C T43G] | 0.765 |
| GAGACCGCAACTGAAAAGTTGTTATCCCTTGTCGTAAGACACCTTGGATGGGTTGAAGTTCTGCACGTAGAAGCAAAAGGC [A27C T43C] | 0.78 |
| GAGACCGCAACTGAAAAGTTGTTATCGCTTGTCGTAAGACACTTTGGCTGGGTTGAAGTTCTGCACGTAGAAGCAAAAGGC [A27G A48C] | 0.504 |
| GAGACCGCAACTGAAAAGTTGTTATCGCTTGTCGTAAGACACTTTGGTTGGGTTGAAGTTCTGCACGTAGAAGCAAAAGGC [A27G A48T] | 0.195 |
| GAGACCGCAACTGAAAAGTTGTTATCGCTTGTCGTAAGACACTTTGGGTGGGTTGAAGTTCTGCACGTAGAAGCAAAAGGC [A27G A48G] | 0.788 |
| GAGACCGCAACTGAAAAGTTGTTATCGCTTGTCGTAAGGCACTTTGGATGGGTTGAAGTTCTGCACGTAGAAGCAAAAGGC [A27G A39G] | 0.799 |
| GAGACCGCAACTGAAAAGTTGTTATCGCTTGTCGTAAGCCACTTTGGATGGGTTGAAGTTCTGCACGTAGAAGCAAAAGGC [A27G A39C] | 0.8 |
| GAGACCGCAACTGAAAAGTTGTTATCGCTTGTCGTAAGTCACTTTGGATGGGTTGAAGTTCTGCACGTAGAAGCAAAAGGC [A27G A39T] | 0.814 |
| GAGACCGCAACTGAAAAGTTGTTATCCCTTGTCGTAAGACACTTTGGATGGGTTTAAGTTCTGCACGTAGAAGCAAAAGGC [A27C G55T] | 0.792 |
| GAGACCGCAACTGAAAAGTTGTTATCCCTTGTCGTAAGACACTTTGGATGGGTTCAAGTTCTGCACGTAGAAGCAAAAGGC [A27C G55C] | 0.355 |
| GAGACCGCAACTGAAAAGTTGTTATCCCTTGTCGTAAGACACTTTGGATGGGTTAAAGTTCTGCACGTAGAAGCAAAAGGC [A27C G55A] | 0.805 |
| GAGACCGCAACTGAAAAGTTGTTATCCCTTGTCGTAAGACACTATGGATGGGTTGAAGTTCTGCACGTAGAAGCAAAAGGC [A27C T44A] | 0.79 |
| GAGACCGCAACTGAAAAGTTGTTATCCCTTGTCGTAAGACACTGTGGATGGGTTGAAGTTCTGCACGTAGAAGCAAAAGGC [A27C T44G] | 0.798 |
| GAGACCGCAACTGAAAAGTTGTTATCCCTTGTCGTAAGACACTCTGGATGGGTTGAAGTTCTGCACGTAGAAGCAAAAGGC [A27C T44C] | 0.788 |
| GAGACCGCAACTGAAAAGTTGTTATCCCTTGTCGTAAGACACTTTGAATGGGTTGAAGTTCTGCACGTAGAAGCAAAAGGC [A27C G47A] | 0.799 |
| GAGACCGCAACTGAAAAGTTGTTATCCCTTGTCGTAAGACACTTTGCATGGGTTGAAGTTCTGCACGTAGAAGCAAAAGGC [A27C G47C] | 0.158 |

| Variant | fraction ligated |
| --- | --- |
| GAGACCGCAACTGAAAAGTTGTTATCCCTTGTCGTAAGACACTTTGTATGGGTTGAAGTTCTGCACGTAGAAGCAAAAGGC [A27C G47T] | 0.126 |
| GAGACCGCAACTGAAAAGTTGTTATCGCTTGTCGTAAGACACTTTGGATGGGTTGAGGTTCTGCACGTAGAAGCAAAAGGC [A27G A57G] | 0.819 |
| GAGACCGCAACTGAAAAGTTGTTATCGCTTGTCGTAAGACACTTTGGATGGGTTGATGTTCTGCACGTAGAAGCAAAAGGC [A27G A57T] | 0.81 |
| GAGACCGCAACTGAAAAGTTGTTATCGCTTGTCGTAAGACACTTTGGATGGGTTGACGTTCTGCACGTAGAAGCAAAAGGC [A27G A57C] | 0.777 |
| GAGACCGCAACTGAAAAGTTGTTATCGGTTGTCGTAAGACACTTTGGATGGGTTGAAGTTCTGCACGTAGAAGCAAAAGGC [A27G C28G] | 0.777 |
| GAGACCGCAACTGAAAAGTTGTTATCGATTGTCGTAAGACACTTTGGATGGGTTGAAGTTCTGCACGTAGAAGCAAAAGGC [A27G C28A] | 0.805 |
| GAGACCGCAACTGAAAAGTTGTTATCGTTTGTCGTAAGACACTTTGGATGGGTTGAAGTTCTGCACGTAGAAGCAAAAGGC [A27G C28T] | 0.813 |
| GAGACCGCAACTGAAAAGTTGTTATCGCTTGTCGTAAGACACTTTGGATGGGTTGTAGTTCTGCACGTAGAAGCAAAAGGC [A27G A56T] | 0.769 |
| GAGACCGCAACTGAAAAGTTGTTATCGCTTGTCGTAAGACACTTTGGATGGGTTGCAGTTCTGCACGTAGAAGCAAAAGGC [A27G A56C] | 0.767 |
| GAGACCGCAACTGAAAAGTTGTTATCGCTTGTCGTAAGACACTTTGGATGGGTTGGAGTTCTGCACGTAGAAGCAAAAGGC [A27G A56G] | 0.755 |
| GAGACCGCAACTGAAAAGTTGTTATCGCTTGTCGTCAGACACTTTGGATGGGTTGAAGTTCTGCACGTAGAAGCAAAAGGC [A27G A36C] | 0.822 |
| GAGACCGCAACTGAAAAGTTGTTATCGCTTGTCGTTAGACACTTTGGATGGGTTGAAGTTCTGCACGTAGAAGCAAAAGGC [A27G A36T] | 0.826 |
| GAGACCGCAACTGAAAAGTTGTTATCGCTTGTCGTGAGACACTTTGGATGGGTTGAAGTTCTGCACGTAGAAGCAAAAGGC [A27G A36G] | 0.805 |
| GAGACCGCAACTGAAAAGTTGTTATCGCTTGTCGTAAGACACTTTGGATGGGTTGAAGTTCTGCACGTAGAAGCAAAAGGC [A27G] | 0.852 |
| GAGACCGCAACTGAAAAGTTGTTATCCCTTGTCGTAAGACACTTTGGAGGGGTTGAAGTTCTGCACGTAGAAGCAAAAGGC [A27C T49G] | 0.733 |
| GAGACCGCAACTGAAAAGTTGTTATCCCTTGTCGTAAGACACTTTGGAAGGGTTGAAGTTCTGCACGTAGAAGCAAAAGGC [A27C T49A] | 0.701 |
| GAGACCGCAACTGAAAAGTTGTTATCCCTTGTCGTAAGACACTTTGGACGGGTTGAAGTTCTGCACGTAGAAGCAAAAGGC [A27C T49C] | 0.519 |
